Experimental data from the RNAGym collection of RNA variant scans (doi:10.1021/acssynbio.7b00057).

B1: Pistol ribozyme (parent)
chain: GGGUCGUUGUUCCAUAAUCGCGUGGAUAUGGCACGCAAGUUUCUACCGGGCACCGUAAAUGUCCGACUGGAGCCGUUCGGGCGGCUAUAAACAGACCUCAGGCCCGAAGCGUGGCGGCACCUGCCGCCGGUGGUAAAAAAGAUCGGAAGAGCACACGUCU

Variants of: B1
Experiment: aptazyme ON/OFF ratio, guanine; higher = stronger switching; co-transcriptional cleavage with and without guanine

| Variant | aptazyme ON/OFF ratio |
| --- | --- |
| U7C U8A G9C U10G C12A C13U | 1.13 |
| U7C U8A G9C U10G C12A C13G | 1.09 |
| U7C U8A G9C U10G C12A C13A | 1.23 |
| U7C U8A G9U U10C U11C C12A | 1.06 |
| U7C U8A G9U U10C U11C C12G | 1.03 |
| U7C U8A G9U U10C U11C C12U | 1.08 |
| U7C U8A G9C U10C | 2.31 |
| U7C U8A G9C U10G | 1.97 |
| U7C U8A G9U U10A U11C C12A C13U | 1.22 |
| U7C U8A G9U U10A U11C C12A C13G | 1.17 |
| U7C U8A G9U U10A U11C C12A C13A | 1.18 |
| U7C U8A G9U U10A U11A C12U C13A | 1.2 |
| U7C U8A G9U U10A U11A C12U C13G | 1.21 |
| U7C U8A G9U U10A U11A C12U C13U | 1.36 |
| U7C U8A G9U U10C C12U C13A | 1.12 |
| U7C U8A G9U U10C C12U C13U | 1.13 |
| U7C U8A G9U U10C C12U C13G | 1.12 |
| U7C U8A G9C U10A U11C C12U C13U | 1.12 |
| U7C U8A G9C U10A U11C C12U C13G | 1.1 |
| U7C U8A G9C U10A U11C C12U C13A | 1.18 |
| U7C U8A G9C U10G C12G C13U | 1.15 |
| U7C U8A G9C U10G C12G C13A | 1.32 |
| U7C U8A G9C U10G C12G C13G | 1.13 |
| U7C U8A G9C U10A U11C C12U | 1.08 |

| Variant | aptazyme ON/OFF ratio |
| --- | --- |
| U7C U8A G9C U11G C12G C13U | 1.05 |
| U7C U8A G9C U11G C12G C13G | 1.07 |
| U7C U8A G9C U11G C12G C13A | 1.1 |
| U7C U8A G9C U10A U11G C12U C13U | 1.13 |
| U7C U8A G9C U10A U11G C12U C13A | 1.1 |
| U7C U8A G9C U10A U11G C12U C13G | 1.08 |
| U7C U8A G9C U10C U11C C12G | 1.04 |
| U7C U8A G9C U10C U11C C12U | 1.02 |
| U7C U8A G9C U10C U11C C12A | 1.06 |
| U7C U8A G9C U10C U11A C13U | 1.13 |
| U7C U8A G9C U10C U11A C13A | 1.09 |
| U7C U8A G9C U10C U11A C13G | 1.2 |
| U7C U8A G9U U10A C12U C13U | 1.19 |
| U7C U8A G9U U10A C12U C13G | 1.16 |
| U7C U8A G9U U10A C12U C13A | 1.24 |
| U7C U8A G9C U10G U11C | 1.1 |
| U7C U8A G9C U10G U11A | 1.05 |
| U7C U8A G9C U10G U11G | 1.1 |
| U7C U8A G9C U10A U11G C13U | 1.16 |
| U7C U8A G9C U10A U11G C13G | 1.02 |
| U7C U8A G9C U10A U11G C13A | 1.12 |
| U7C U8A G9C U10C C12G C13G | 1.07 |
| U7C U8A G9C U10C C12G C13A | 1.06 |
| U7C U8A G9C U10C C12G C13U | 1.07 |

| Variant | aptazyme ON/OFF ratio |
| --- | --- |
| U7C U8A G9U U10C U11C C12A C13G | 1.29 |
| U7C U8A G9U U10C U11C C12A C13U | 1.12 |
| U7C U8A G9U U10C U11C C12A C13A | 1.06 |
| U7C U8A G9C U10C U11A | 0.786 |
| U7C U8A G9C U10C U11C | 1.01 |
| U7C U8A G9C U10C U11G | 0.891 |
| U7C U8A G9U U10A U11A C12G C13A | 1.08 |
| U7C U8A G9U U10A U11A C12G C13G | 1.2 |
| U7C U8A G9U U10A U11A C12G C13U | 1.28 |
| U7C U8A G9C U10C U11C C12G C13G | 1.04 |
| U7C U8A G9C U10C U11C C12G C13U | 1.04 |
| U7C U8A G9C U10C U11C C12G C13A | 1.04 |
| U7C U8A G9U U10A U11C C12G C13G | 1.19 |
| U7C U8A G9U U10A U11C C12G C13U | 1.25 |
| U7C U8A G9U U10A U11C C12G C13A | 1.13 |
| U7C U8A G9U U10C C12U | 1.13 |
| U7C U8A G9U U10C C12A | 1.14 |
| U7C U8A G9U U10C C12G | 1.22 |
| U7C U8A G9C U10A U11G C12A C13G | 1.12 |
| U7C U8A G9C U10A U11G C12A C13A | 1.13 |
| U7C U8A G9C U10A U11G C12A C13U | 1.14 |
| U7C U8A G9C U11A C13U | 1.13 |
| U7C U8A G9C U11A C13G | 1.06 |
| U7C U8A G9C U11A C13A | 1.11 |

| Variant | aptazyme ON/OFF ratio |
| --- | --- |
| U7C U8A G9C U10G U11C C12G C13U | 1.19 |
| U7C U8A G9C U10G U11C C12G C13G | 1.23 |
| U7C U8A G9C U10G U11C C12G C13A | 1.25 |
| U7C U8A G9C U10C U11A C12U C13A | 1.04 |
| U7C U8A G9C U10C U11A C12U C13U | 1.04 |
| U7C U8A G9C U10C U11A C12U C13G | 1.05 |
| U7C U8A G9C U11C C12A C13G | 1.07 |
| U7C U8A G9C U11C C12A C13U | 1.08 |
| U7C U8A G9C U11C C12A C13A | 1.04 |
| U7C U8A G9U U10A U11C | 1.05 |
| U7C U8A G9U U10A U11A | 1.38 |
| U7C U8A G9U U10A U11G | 1.36 |
| U7C U8A G9C U11A | 1.05 |
| U7C U8A G9C U11C | 1.04 |
| U7C U8A G9C U11G | 1.13 |
| U7C U8A G9C U10C U11G C12A C13G | 1.17 |
| U7C U8A G9C U10C U11G C12A C13U | 1.08 |
| U7C U8A G9C U10C U11G C12A C13A | 1.21 |
| U7C U8A G9C U10C C12U C13A | 1.06 |
| U7C U8A G9C U10C C12U C13U | 1.05 |
| U7C U8A G9C U10C C12U C13G | 1.06 |
| U7C U8A G9C U10C U11C C12U C13G | 1.03 |
| U7C U8A G9C U10C U11C C12U C13U | 1.02 |
| U7C U8A G9C U10C U11C C12U C13A | 1.03 |

| Variant | aptazyme ON/OFF ratio |
| --- | --- |
| U7C U8A G9C U10C C12A C13A | 1.05 |
| U7C U8A G9C U10C C12A C13G | 1.07 |
| U7C U8A G9C U10C C12A C13U | 1.06 |
| U7C U8A G9C U11A C12U C13G | 1.1 |
| U7C U8A G9C U11A C12U C13U | 1.2 |
| U7C U8A G9C U11A C12U C13A | 1.16 |
| U7C U8A G9C U11C C13G | 1.04 |
| U7C U8A G9C U11C C13A | 1.14 |
| U7C U8A G9C U11C C13U | 1.05 |
| U7C U8A G9U U10A U11G C12U C13U | 1.31 |
| U7C U8A G9U U10A U11G C12U C13G | 1.16 |
| U7C U8A G9U U10A U11G C12U C13A | 1.16 |
| U7C U8A G9C U10G U11C C12A C13U | 1.43 |
| U7C U8A G9C U10G U11C C12A C13G | 1.21 |
| U7C U8A G9C U10G U11C C12A C13A | 1.36 |
| U7C U8A G9C U10G U11C C12G | 1.18 |
| U7C U8A G9C U10G U11C C12A | 1.29 |
| U7C U8A G9C U10G U11C C12U | 1.24 |
| U7C U8A G9U U10C U11A | 1.27 |
| U7C U8A G9U U10C U11G | 1.06 |
| U7C U8A G9U U10C U11C | 1.01 |
| U7C U8A G9C U11G C12U C13U | 1.13 |
| U7C U8A G9C U11G C12U C13G | 1.14 |
| U7C U8A G9C U11G C12U C13A | 1.18 |

| Variant | aptazyme ON/OFF ratio |
| --- | --- |
| U7C U8A G9C U11G C13A | 1.07 |
| U7C U8A G9C U11G C13G | 1.05 |
| U7C U8A G9C U11G C13U | 1.15 |
| U7C U8A G9C U11A C12A C13A | 1.11 |
| U7C U8A G9C U11A C12A C13G | 1.08 |
| U7C U8A G9C U11A C12A C13U | 1.15 |
| U7C U8A G9C U10C U11A C12A C13U | 1.04 |
| U7C U8A G9C U10C U11A C12A C13G | 1.11 |
| U7C U8A G9C U10C U11A C12A C13A | 1.07 |
| U7C U8A G9U U10C C13A | 1.05 |
| U7C U8A G9U U10C C13G | 1.07 |
| U7C U8A G9U U10C C13U | 1.8 |
| U7C U8A G9U C12A C13U | 1.15 |
| U7C U8A G9U C12A C13G | 1.18 |
| U7C U8A G9U C12A C13A | 1.14 |
| U7C U8A G9C U10G C12U C13A | 1.18 |
| U7C U8A G9C U10G C12U C13G | 1.17 |
| U7C U8A G9C U10G C12U C13U | 1.26 |
| U7C U8A G9U U10A U11G C12A C13G | 1.15 |
| U7C U8A G9U U10A U11G C12A C13A | 1.09 |
| U7C U8A G9U U10A U11G C12A C13U | 1.14 |
| U7C U8A G9U U10C U11A C12G C13G | 1.09 |
| U7C U8A G9U U10C U11A C12G C13A | 1.1 |
| U7C U8A G9U U10C U11A C12G C13U | 1.13 |

| Variant | aptazyme ON/OFF ratio |
| --- | --- |
| U7C U8A G9C U11C C12U C13A | 1.11 |
| U7C U8A G9C U11C C12U C13G | 1.06 |
| U7C U8A G9C U11C C12U C13U | 1.12 |
| U7C U8A G9U U10A C12G C13U | 1.25 |
| U7C U8A G9U U10A C12G C13G | 1.17 |
| U7C U8A G9U U10A C12G C13A | 1.12 |
| U7C U8A G9U U10A U11G C13U | 1.17 |
| U7C U8A G9U U10A U11G C13A | 1.16 |
| U7C U8A G9U U10A U11G C13G | 1.03 |
| U7C U8A G9U U10C U11A C12U C13U | 1.15 |
| U7C U8A G9U U10C U11A C12U C13A | 1.11 |
| U7C U8A G9U U10C U11A C12U C13G | 1.09 |
| U7C U8A G9U U10C C12G C13U | 1.22 |
| U7C U8A G9U U10C C12G C13G | 1.28 |
| U7C U8A G9U U10C C12G C13A | 1.18 |
| U7C U8A G9U U10C U11A C13G | 1.07 |
| U7C U8A G9U U10C U11A C13U | 1.17 |
| U7C U8A G9U U10C U11A C13A | 1.15 |
| U7C U8A G9U U10C U11G C12A C13G | 1.09 |
| U7C U8A G9U U10C U11G C12A C13A | 1.11 |
| U7C U8A G9U U10A U11C C13A | 1.07 |
| U7C U8A G9U U10A U11C C13U | 1.06 |
| U7C U8A G9U U10A U11C C13G | 1.05 |
